Literature values, collected in patent US10076577B2, “Compositions and methods for treating endocrine, gastrointestinal or autoimmune disorders” (priority 2010, dated 2018).

Conditions: in vivo

**Q.** Which “half-life in the blood” value does the source give for Glucagon-like peptide-1 [GLP-1] here?
**A.** a few minutes
